Biological target: Bovine pancreatic trypsin inhibitor, reduced form, P00974

B1: GST-Pdia4 (protein)
chain: VAGAEGPDEDSSNRENAIEDEEEEEEEDDDEEEDDLEVKEENGVLVLNDANFDNFVADKDTVLLEFYAPWCGHCKQFAPEYEKIANILKDKDPPIPVAKIDATSASVLASRFDVSGYPTIKILKKGQAVDYEGSRTQEEIVAKVREVSQPDWTPPPEVTLVLTKENFDEVVNDADIILVEFYAPWCGHCKKLAPEYEKAAKELSKRSPPIPLAKVDATAETDLAKRFDVSGYPTLKIFRKGRPYDYNGPREKYGIVDYMIEQSGPPSKEILTLKQVQEFLKDGDDVIIIGVFKGESDPAYQQYQDAANNLREDYKFHHTFSTEIAKFLKVSQGQLVVMQPEKFQSKYEPRSHMMDVQGSTQDSAIKDFVLKYALPLVGHRKVSNDAKRYTRRPLVVVYYSVDFSFDYRAATQFWRSKVLEVAKDFPEYTFAIADEEDYAGEVKDLGLSESGEDVNAAILDESGKKFAMEPEEFDSDTLREFVTAFKKGKLKPVIKSQPVPKNNKGPVKVVVGKTFDSIVMDPKKDVLIEFYAPWCGHCKQLEPVYNSLAKKYKGQKGLVIAKMDATANDVPSDRYKVEGFPTIYFAPSGDKKNPVKFEGGDRDLEHLSKFIEEHATKLSRTKEEL
  disulfide isomerase activity, fraction remaining (%) of the reduced BPTI: GST-Pdia4 showed disulfide isomerase activity as compared to GST protein in redox buffer as evidenced by a decrease in disulfide formation of bovine pancreatic trypsin inhibitor

From patent US20110280809
